According to patent US12466859B2, “Desmoglein 2 (DSG2) binding proteins and uses therefor” (UNIVERSITY OF WASHINGTON THROUGH ITS CENTER FOR …, priority 2013, dated 2025):
Where a chain is given by its changes, count along the chain named. In names and notes the source's numbering stands.

B1: N186D (protein)
chain: MKVSALKEKVSALKEKVSALKEKVSALKEKVSALKEGSGGGSGGGSGGGSNSIALKNNTLWTGPKPEANCIIEYGKQNPDSKLTLILVKNGGIVNGYVTLMGASDYVNTLFKDKNVSINVELYFDATGHILPDSSSLKTDLELKYKQTADFSARGFMPSTTAYPFVLPNAGTHNENYIFGQCYYKASDGALFPLEVTVMLNKRLPDSRTSYVMTFLWSLNAGLAPETTQATLITSPFTFSYIREDD
B2: V239D (protein)
chain: B1 chain with D113N, V166D
B3: K217E+F224S (protein)
chain: B1 chain with D113N, K144E, F151S
B4: E299V (protein)
chain: B1 chain with D113N, E226V

Legend:
[1] = tested on: polarized colon cancer T84 cells; assay: Transepithelial electrical resistance (TEER) on polarized T84 cells; assay type: cell-based; conditions: for Effect on the TEER: added for 1 hour to the apical side of transwell cultures; for TEER compared to JO-1: dimeric affinity-enhanced mutants, TEER at 4 hours
Experimental: (§1) FIG. 5A-5B. Correlation of reduced DSG2 binding with the ability to open epithelial junctions. FIG. 5A) Transepithelial electrical resistance (TEER) measured on polarized colon cancer T84 cells. Cells were cultured in transwell chambers until the TEER was constant, i.e. tight junctions had formed. A total of 5 μg of dimeric Ad3 fiber knobs in PBS was then added for 1 hour to the apical chamber. TEER was measured at the indicated time points. N=6. For time points 1.5 and 4 hours the difference between JO-1 vs D261N and N186D was significant (p<0.01). The arrows indicate the addition and removal of Ad3 fiber knobs. FIG. 5B) Enhancement of irinotecan therapy. A total of 4×10^6 A549 cells were injected subcutaneously into CB17-SCID/beige mice. Once the tumor reached a volume of ˜100 mm^3 (day 15 after implantation), the mice were injected intravenously with 2 mg/kg JO-1, E299V, N186D, or PBS, followed by an intravenous injection of irinotecan (37.5 mg/kg) one hour later. The treatment was repeated on day 25. N=5. […] The difference between “irinotecan” vs “JO-1+irinotecan” was significant (p<0.01) from day 20 on.
FIG. 9A1-9C. Analysis of dimeric Ad3 fiber knob mutants with increased affinity to DSG2. FIG. 9A1-9A2) Competition of Ad3-GFP virus infection on HeLa cells with dimeric affinity-enhanced mutant Y250F and JO-1 (dimeric wt Ad3 fiber knob). The experimental setting is as described for FIG. 3C. FIG. 9A1) percentage of GFP positive cells. FIG. 9A2) mean fluorescence intensity. N=3. The standard deviation was less than 10%. FIG. 9B1-9B2) Competition of Ad3-GFP virus infection on HeLa cells by Ad3 knob mutants with enhanced DSG2 binding but without dimerization domain. 1.5×10^5 HeLa cells were seeded into 24 well plates. Cells were incubated with the Ad3 knob mutants at the increasing concentrations for one hour at room temperature. 100 pfu/cell of Ad3GFP virus were then added and GFP expression was analyzed 18 hours later. FIG. 9B1) % of GFP+cells; FIG. 9B2) MFI. FIG. 9C) TEER on colon cancer T84 cells. The experimental setting was the same as for FIG. 5A. The TEER at 4 hours is shown. N=3.
Permeability assay. A total of 5×10^5 T84 cells were seeded in 12 mm transwell inserts (PET membrane, with 0.4 μm pore size (Corning, NY) and cultured for >14 days until transepithelial electrical resistance (TEER) was stable. Culture medium was changed every 2-3 days. The cells were exposed to DSG2 ligands (20 μg/ml) in adhesion medium (DMEM, 1% FBS, 2 mM MgCl2, 20 mM HEPES) for 15 min at room temperature and TEER was measured and calculated as described elsewhere (39).

[2] = tested on: A549 xenograft tumors; assay: Enhancement of irinotecan therapy in A549 xenograft tumors; assay type: in vivo, CB17-SCID/beige mice; conditions: 2 mg/kg i.v. one hour before irinotecan 37.5 mg/kg i.v.; tumor volume
Experimental: as §1
FIG. 10A-10C. Combination of affinity-enhanced JO-1 versions with chemotherapy. FIG. 10A) Enhancement of irinotecan (I) therapy. The experimental setting was the same as in FIG. 5B. […] N=5. […] Mammary fat pad tumors were established from primary ovarian cancer ovc316 cells. Treatment was started when tumors reached a volume of 100 mm^3. Mice were injected intravenously with 2 mg/kg JO-1 or with 0.5 mg/kg JO-4, followed by an intravenous injection of PEGylated liposomal doxorubicin (PLD) (1 mg/kg) one hour later. Treatment was repeated weekly. […] A total of 4×10^6 TNBC MDA-MB-231 cells were injected into the mammary fat pad of CB17 SCID-beige mice. JO-4 (2 mg/kg) was intravenously injected 1 hour before the application of cetuximab (C) (10 mg/kg, i.p.) and nab-paclitaxel (nab-P) (5 mg/kg, i.v.). Treatment was given weekly. N=10 P<0.01 at day 25 for nab-P+C vs JO-4+nab-P+C.
A549, MDA-MB-231, and ovc316 xenograft tumors were established by injection of the corresponding tumor cells into the mammary fat pad (1:1 with Matrigel) of CB17 mice. TC1-DSG2 tumors were established by subcutaneous injection of TC1-DSG2 cells into DSG2 transgenic mice. JO-0, JO-1, JO-2, or JO-4 were intravenously injected one hour before the application of chemotherapeutic drugs: Irinotecan/Camptosar™ (Pfizer Inc., Groton, CT), PEGylated liposomal doxorubicin/Lipodox™ (Sun Pharmaceuticals IN, India), cetuximab/Erbitux™ (ImClone, Somerville, NJ), nanoparticle albumin conjugated paclitaxel/Abraxane” (Abraxis Biosciences, Summit, NJ). Tumor volumes were measured three times a week. Each treatment group consisted of a minimum of 5 mice.

Molecule | Effect on the TEER [1] | Enhancement of irinotecan therapy [2] | TEER compared to JO-1 [1]
B1 | intermediate effects | not significant | –
B2 | – | – | significantly higher
B3 | – | – | significantly higher
B4 | intermediate effects | not significant | –
